Target: T1, human ILT5 on the surface of peripheral blood cells (PBMC subsets, APCs) (human, UniProt O75022 24-631)
T1 construct: whole, on cells; also called surface ILT5; Immunoglobulin-like transcript 5
Assay: flow cytometry, staining of human PBMCs
From the text: Peripheral blood mononuclear cells (PBMCs) from healthy human blood donors were stained with a murine monoclonal antibody (TRX585) comprising a heavy chain variable region comprising the amino acid sequence of SEQ ID NO: 2 or SEQ ID NO: 3, and a light chain variable region comprising the amino acid sequence of SEQ ID NO: 1. Sequencing analysis of the heavy chain variable region was inconclusive as to whether the first amino acid residue was D or E. As the two amino acids are very similar and the first residue is not in a CDR, it is highly likely that VH with D or E at the first position would have very similar if not the same ILT5-binding properties. PBMCs were also stained with antibodies specific for defined hematopoietic cell lineages and analyzed for ILT5 expression by flow cytometry.

T1 sequence (O75022 24-631): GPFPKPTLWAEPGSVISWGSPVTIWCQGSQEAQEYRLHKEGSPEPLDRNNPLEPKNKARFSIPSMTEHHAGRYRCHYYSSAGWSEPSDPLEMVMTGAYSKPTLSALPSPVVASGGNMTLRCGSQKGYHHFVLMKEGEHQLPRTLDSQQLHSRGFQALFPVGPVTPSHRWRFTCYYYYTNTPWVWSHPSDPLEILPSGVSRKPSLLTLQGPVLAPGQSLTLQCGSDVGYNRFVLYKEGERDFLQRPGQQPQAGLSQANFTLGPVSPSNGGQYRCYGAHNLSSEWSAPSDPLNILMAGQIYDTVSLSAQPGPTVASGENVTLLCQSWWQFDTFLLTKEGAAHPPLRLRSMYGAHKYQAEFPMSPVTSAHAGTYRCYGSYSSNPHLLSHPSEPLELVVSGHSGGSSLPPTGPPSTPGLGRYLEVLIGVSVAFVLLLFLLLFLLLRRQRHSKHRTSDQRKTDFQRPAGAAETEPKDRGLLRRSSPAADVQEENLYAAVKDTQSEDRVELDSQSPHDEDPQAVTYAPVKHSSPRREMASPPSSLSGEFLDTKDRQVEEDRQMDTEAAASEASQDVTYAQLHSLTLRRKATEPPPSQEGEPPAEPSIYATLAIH

B1: TRX585 mouse anti-human ILT5 monoclonal antibody (8G6 mAb, IgG1, kappa) (antibody, V domains shown)
VH: DVQLQESGPGLVKPSQSLFLTCSVTGYSISSSYYWNWIRQFPGNKLEWMGYISFDGSNNYNPSLKNRISITRDTSKNQFFLKLNSVTTEDTATYYCAREKENYYGSSFYYFDYWGLGTSLTVSS
VL: DIQMTQSPASLSVSVGETVTITCRASENIYSNLAWYQQKQGKSPQVLVYAATNLADGVPSRFSGSGSGTQFSLKINSLQSEDFGNYFCQHFWRIPWTFGGGTKLEIK
notes: Murine IgG1, kappa purified from hybridoma supernatant; also called TRX585 antibody; TRX585 mAb
- binding result: binds

Reference: patent US20170158765A1 (Merck Sharp & Dohme, published 2017)
